Laboratory results published in article PMC4259466 (Nature communications, 2014).

Biological target: Aurora B-phosphorylated WT His-PKM2 (human, UniProt P14618 1-531, phosphothreonine at 45 (by Aurora B in vitro))
Assay: pull-down

Sequence of Aurora B-phosphorylated WT His-PKM2 (P14618 whole entry): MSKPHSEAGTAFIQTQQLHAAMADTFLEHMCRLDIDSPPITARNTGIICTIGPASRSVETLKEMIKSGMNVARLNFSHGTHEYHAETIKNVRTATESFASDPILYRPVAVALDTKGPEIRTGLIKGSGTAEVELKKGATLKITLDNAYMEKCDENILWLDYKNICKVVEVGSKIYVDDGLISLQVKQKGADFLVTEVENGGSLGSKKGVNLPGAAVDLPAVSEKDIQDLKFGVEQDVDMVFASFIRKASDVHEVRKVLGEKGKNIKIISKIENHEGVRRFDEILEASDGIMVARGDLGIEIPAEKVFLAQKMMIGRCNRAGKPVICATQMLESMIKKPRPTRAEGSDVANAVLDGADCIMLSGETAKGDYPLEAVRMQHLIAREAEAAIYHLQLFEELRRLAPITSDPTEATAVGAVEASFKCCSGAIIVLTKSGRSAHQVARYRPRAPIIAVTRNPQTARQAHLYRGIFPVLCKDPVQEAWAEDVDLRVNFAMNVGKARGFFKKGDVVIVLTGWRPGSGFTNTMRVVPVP

binding result: binds
B1: GST-MLC2 (wild type, recombinant) (natural protein)
chain: MAPKKAKKRAGGANSNVFSMFEQTQIQEFKEAFTIMDQNRDGFIDKNDLRDTFAALGRVNVKNEEIDEMIKEAPGPINFTVFLTMFGEKLKGADPEETILNAFKVFDPEGKGVLKADYVREMLTTQAERFSKEEVDQMFAAFPPDVTGNLDYKNLVHIITHGEEKD
